This note sets out measurements from patent US20250320294A1.

Experiment [1] addresses human-CD45RO-ECD-His (human) (UniProt P08575). The experiment can be described thus: ELISA, human-CD45RO-ECD-His-coated plates. Background: In an ELISA, binding on a coated surface is turned into a signal by an enzyme label.
For experiment [2] the target is unchanged. The experiment can be described thus: SPR, captured human-CD45RO-ECD-His, 1:1 binding. In general terms: Surface plasmon resonance follows binding to a sensor surface in real time, without labels.
Experiment [3] shares this target. The experiment can be described thus: SPR, captured human-CD45RO-ECD-His, 1:1 binding; row label printed 'Clone 023' a second time, taken as clone 028 by the order in paragraph 382.

B1: anti-CD45 antibody clone 042 (antibody, V domains shown)
VH: EVQLQQSGAELVKPGASVKLSCTASGFNIKDTFMHWVKLRPEQGLEWIGRIDPANGYTKYDPRFQGKATIIADTSSNTAYLQLSSLTSEDTAVYYCASGEYYALDYWGQGTSVTVSS
VL: DIVLTQSPASLTVSLGQRATISCRASKSVSTSGYSYMHWYQQKPGQPPKLLIYLASNLESGVPARFSGSGSGTDFTLNIHPVEEEDAATYYCQHNRELPYTFGGGTKLEIK
B1 had an EC50 in experiment [1] of 144 pM.

B2: anti-CD45 antibody clone 031 (antibody, V domains shown)
VH: DVQLVESGGGLVQPGGSRKLSCAASGFTFSSFGMHWVRQAPEKGLEWVAYINSGSTTFYYADTVKGRFTISRDNPKNTLFLQMTSLGSEDTAMYYCARSATATWTMDYWGQGTSVTVSS
VL: NIMMTQSPSSLAVSAGEKVTMSCKSSQSVFVSSNQKNYLAWYQQKPGQSPKLLIYWASTRESAVPDRFTGSGSGTDFTLTIGSVQAEDLAVYYCHQYLSSWTFGGGTKLEIK
For B2, in experiment [2], the Kd was 79500 pM, the koff turned out to be 0.000335 s⁻¹ and the kon stood at 4220 M⁻¹ s⁻¹. The concentration for a half-maximal effect (EC50) in experiment [1] turned out to be 139 pM.

B3: anti-CD45 antibody clone 027 (antibody, V domains shown)
VH: QVQLQQSAPELARPGASVRMSCKASGYTFTTYTMNWLTQRPGQGLEWIGYINPSSGYTEYNQKFKDKTSLTADTSSSTAYMQLSSLTSEHSAVYYCARASGYSSWFAYWGQGTLVTVSA
VL: NIVMTQTPKFLLVSAGDRVTITCKASQSVNNDVGWYQQKPGQSPKLLIYYASNRYTGVPDRFTGSGYGTDFTFTISTVQAEDLAVYFCQQDYNSPLTFGAGTKLELK
For B3, in experiment [2], the dissociation constant Kd worked out at 3720 pM, the koff is 0.000282 s⁻¹ and the kon was 75800 M⁻¹ s⁻¹. In addition, in experiment [1], the EC50 is 73.4 pM.

B4: anti-CD45 antibody clone 028 (antibody, V domains shown)
VH: QVQLQQSGAELARPGASVKMSCKASGYTFTFYAILWVKQMPGQGLEWIGFINPSSGYTSYNQKFKDKATLTADKSSSTAYMQLSSLTSEDSAVYYCARDYGLDYWGQGTTLAVSS
VL: DIVMTQAAPSVPVTPGESVSISCRSSKSLLHSNGNTYLYWFLQRPGQSPQLLIYRMSNLASGVPDRFSGSGSGTAFTLGISRVEAGDVGVYYCMQHLEYPFTFGSGTKLEIK
Take B4: in experiment [1], the EC50 is 31.9 pM. In experiment [3], this molecule showed a Kd of 39900 pM, a koff of 0.000591 s⁻¹ and a kon of 14800 M⁻¹ s⁻¹.

For orientation: EC50 means the midpoint of the concentration-response curve. Usually Kd stands for the free concentration of one partner at which half of the binding sites on the other are occupied at equilibrium, for simple one-to-one binding. Higher therefore signals a looser complex. A word on the koff: it is the first-order rate constant of dissociation. Lower therefore signals a long-lived complex. Broadly, the kon is the second-order rate constant of association.
